T1: mHVEM:Fas (mouse | human, UniProt Q80WM9 39-206; P25445 169-335)
T1 chain: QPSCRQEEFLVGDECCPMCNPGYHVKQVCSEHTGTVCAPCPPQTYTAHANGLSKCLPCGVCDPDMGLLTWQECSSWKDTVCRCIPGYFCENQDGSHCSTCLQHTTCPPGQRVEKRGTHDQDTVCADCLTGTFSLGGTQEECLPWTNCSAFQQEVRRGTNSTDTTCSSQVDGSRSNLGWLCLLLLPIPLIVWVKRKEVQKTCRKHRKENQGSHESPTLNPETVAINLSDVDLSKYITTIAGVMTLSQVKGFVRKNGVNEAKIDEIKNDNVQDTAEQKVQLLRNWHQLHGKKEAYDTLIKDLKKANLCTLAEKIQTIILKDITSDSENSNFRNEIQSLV

B1: Ig.Foldon-mLIGHT (Fc fusion)
chain: GYIPEAPRDGQAYVRKDGEWVLLSTFLDGGKGSWEKLIQDQRSHQANPAAHLTGANASLIGIGGPLLWETRLGLAFLRGLTYHDGALVTMEPGYYYVYSKVQLSGVGCPQGLANGLPITHGLYKRTSRYPKELELLVSRRSPCGRANSSRVWWDSSFLGGVVHLEAGEEVVVRVPGNRLVRPRDGTRSYFGAFMV
B2: Flag-Foldon-mLIGHT (ligand)
chain: B1 chain
notes: Foldon, small homotrimeric domain; mouse LIGHT (TNFSF14, CD258), aa 72-239 of the 239 amino acids-long protein; the majority ran as poorly active species of around 500 kDa; also called pIB-173; source: HEK-293T, conditioned supernatant

Assays:
mHVEM:Fas = molecular target: T1, mHVEM:Fas; experiment: cell-based or functional assay
[1] = molecular target: the molecule itself; experiment: SEC; Superdex S200 Increase HR 10/30 in PBS, 0.55 ml/min, 250 µl of affinity-purified protein; 1 ml fractions analysed by Western blot and on reporter cells; column calibrated with protein standards

| Binder | EC50 of killing of mHVEM:Fas reporter cells (MTS/PMS) by conditioned supernatants of B16.F10 cells expressing Ig.Foldon-mLIGHT (mHVEM:Fas) | EC50 of killing of mHVEM:Fas reporter cells (MTS/PMS) by purified Ig.Foldon-mLIGHT (mHVEM:Fas) | stoichiometry N [1] |
| --- | --- | --- | --- |
| B1 | 1.9 ng/mL | 51 ng/mL | – |
| B2 | – | – | 3 |
